Molecular target: the molecule itself
Assay: fluorescence image moment analysis; CLSM images of rat kidney cryostat sections immunolabelled with primary anti-NBCe1-A antibody and Alexa 488 secondary antibody; proximal tubule basolateral membranes; brightness normalised to non-specifically bound antibody (44±4 iu = 1 MEU)

B1: native NBCe1-A in rat kidney (proximal tubule basolateral cell membranes) (natural protein, rat (endogenous in rat kidney), UniProt Q9JI66-2 1-1035, looked up)
chain: MSTENVEGKPNNLGERGRARSSTFLRVFQPMFNHSIFTSAVSPAAERIRFILGEEDDSPAPPQLFTELDELLAVDGQEMEWKETARWIKFEEKVEQGGERWSKPHVATLSLHSLFELRTCMEKGSIMLDREASSLPQLVEMIADHQIETGLLKPDLKDKVTYTLLRKHRHQTKKSNLRSLADIGKTVSSASRMFSNPDNGSPAMTHRNLTSSSLNDISDKPEKDQLKNKFMKKLPRDAEASNVLVGEVDFLDTPFIAFVRLQQAVMLGALTEVPVPTRFLFILLGPKGKAKSYHEIGRAIATLMSDEVFHDIAYKAKDRHDLIAGIDEFLDEVIVLPPGEWDPAIRIEPPKSLPSSDKRKNMYSGGENVQMNGDTPHDGGHGGGGHGDCEELQRTGRFCGGLIKDIKRKAPFFASDFYDALNIQALSAILFIYLATVTNAITFGGLLGDATDNMQGVLESFLGTAVSGAIFCLFAGQPLTILSSTGPVLVFERLLFNFSKDHSFDYLEFRLWIGLWSAFMCLILVATDASFLVQYFTRFTEEGFSSLISFIFIYDAFKKMIKLADYYPINSDFRVGYNTHFSCACLPPDPVNLSVSNDTTLAPEDLPTVSSTDMYHNATFDWAYLSKKECVKFGGKLVGNNCDFVPDITLMSFILFLGTYTSSMAMKKFKTSRYFPTTARKLISDFAIILSILIFCVIDALVGVDTPKLIVPSEFKPTSPHRGWFVPPFGGNPWWVCLAAAIPALLVTILIFMDQQITAVIVNRKEHKLKKGAGYHLDLFWVAILMVVCSFMALPWYVAATVISIAHIDSLKMETETSAPGEQPKFLGVREQRVTGTLVFILTGLSVFMAPILKFIPMPVLYGVFLYMGVASLNGVQFMDRLKLLLMPLKHQPDFIYLRHVPLRRVHLFTSLQVLCLALLWILKSTVAAIIFPVMILALVAVRKGMDYLFSQHDLSFLDDVIPEKDKKKKEDEKKKKKKKGSLDSDNDDSDCPYSEKVPSIKIPMDITEQQPFLSDNKPLDRERSSTFLERHTSC
notes: Detected by a primary rabbit anti-NBCe1-A antibody and an Alexa 488 secondary antibody; also called endogenous NBCe1-A; immunolabeled NBCe1-A; source: endogenous, rat kidney cryostat sections (bought: Zyagen RF-901)
stoichiometry N: 2
